# According to publication PMC4928587 (Molecular cancer research : MCR, 2009):
# B1: MBP/PALB2-1–70 (domain or fragment, human, UniProt Q86YC2 1-70, looked up)
# chain: MDEPPGKPLSCEEKEKLKEKLAFLKREYSKTLARLQRAQRAEKIKHSIKKTVEEQDCLSQQDLSPQLKHS
# Biological target: GST/BRCA1-1293–1863 (human, UniProt P38398 1293-1863)
# Test: pull-down
# Chain of GST/BRCA1-1293–1863 (P38398 1293-1863): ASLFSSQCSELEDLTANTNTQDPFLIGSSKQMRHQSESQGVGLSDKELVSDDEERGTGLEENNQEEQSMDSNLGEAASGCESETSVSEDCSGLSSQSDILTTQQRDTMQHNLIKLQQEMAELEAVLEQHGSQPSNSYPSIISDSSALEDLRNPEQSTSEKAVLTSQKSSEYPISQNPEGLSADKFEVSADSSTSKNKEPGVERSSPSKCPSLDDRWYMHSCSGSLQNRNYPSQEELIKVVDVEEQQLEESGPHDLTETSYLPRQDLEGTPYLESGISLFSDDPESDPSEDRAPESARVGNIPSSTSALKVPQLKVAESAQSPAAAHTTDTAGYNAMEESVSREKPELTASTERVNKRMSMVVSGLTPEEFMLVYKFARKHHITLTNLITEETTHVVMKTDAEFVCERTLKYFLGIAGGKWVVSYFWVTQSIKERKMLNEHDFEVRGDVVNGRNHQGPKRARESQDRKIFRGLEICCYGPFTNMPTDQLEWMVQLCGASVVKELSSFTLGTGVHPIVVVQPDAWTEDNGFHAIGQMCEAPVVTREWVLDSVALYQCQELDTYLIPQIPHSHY
binder,measurement,value
B1,binding result,binds
